Reference: publication PMC9008036, “Structural and molecular determinants for the interaction of ExbB from Serratia marcescens and HasB, a TonB paralog” (Communications Biology, 2022)

Experiments:
[1] = target: ExbBSm, untagged, co-expressed and co-purified with ExbDSm-His6 (from pBADExbBDSmHis6) (Serratia marcescens); assay: cryo-EM structure; purified ExbBDSm complex (His6 on ExbD) in LMNG micelles, ca. 1 mg/mL, 20 mM Tris pH 8.0, 100 mM NaCl, 0.0015% LMNG; single-particle, C1, 3.96 Å
[2] = target: ExbBSm, C-terminally His6-tagged (from pBADExbBSmHis6), purified alone (Serratia marcescens); assay: cryo-EM structure; purified ExbBSm-His6 alone in LMNG micelles, ca. 1 mg/mL, 20 mM Tris pH 8.0, 100 mM NaCl, 0.0015% LMNG; single-particle, C5 symmetry, 3.1 Å
[3] = target: T1, C-terminal periplasmic domain of HasB, HasBCTD, residues 133-263 (Serratia marcescens, UniProt Q79AD1 133-263, 15N-labeled); assay: NMR titration; 1H-15N HSQC of 0.15 mM 15N-labeled HasBCTD, 50 mM sodium phosphate pH 7, 50 mM NaCl, 293 K, 600 MHz; peptide added at 2:1 and 10:1 ratios; chemical shift perturbations; conditions: both partners purified
T1 construct: HasB, TonB paralog of Serratia marcescens, C-terminal periplasmic domain, residues 133-263; also called C-terminal globular domain of HasB
T1 sequence (looked up): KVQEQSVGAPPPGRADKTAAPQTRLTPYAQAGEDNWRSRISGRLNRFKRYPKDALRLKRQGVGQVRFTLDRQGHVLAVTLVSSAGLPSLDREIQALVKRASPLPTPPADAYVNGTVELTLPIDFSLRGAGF

ExbBSm, untagged, co-expressed and co-purified with ExbDSm-His6 (from pBADExbBDSmHis6) (natural protein)
stoichiometry N [1]: 5

ExbDSm, C-terminally His6-tagged (from pBADExbBDSmHis6) (natural protein)
stoichiometry N (ExbD monomers per ExbB pentamer) [1]: 2

ExbBSm, C-terminally His6-tagged (from pBADExbBSmHis6), purified alone (natural protein)
stoichiometry N [2]: 5

B1: ExbBSm 1-44 synthetic peptide (periplasmic extension of ExbBSm) (peptide)
peptide: APAANPAVTESVAPTTAPAPAAAAPESITPVNPAPTIQPPETRG
notes: ExbB of Serratia marcescens Db11 (SMDB11_3480), periplasmic N-terminal extension, residues 1-44. numbers count on: the mature protein; also called periplasmic peptide of ExbBSm residues 1-44; periplasmic fragment of ExbBSm; source: synthetic peptide (Proteogenix)
binding result [3]: binds
